Laboratory results taken from patent publication US20190300605A1 (Pfizer, published 2019).

T1: human MAdCAM (full length) (human, UniProt Q13477 19-382)
T1 sequence (looked up): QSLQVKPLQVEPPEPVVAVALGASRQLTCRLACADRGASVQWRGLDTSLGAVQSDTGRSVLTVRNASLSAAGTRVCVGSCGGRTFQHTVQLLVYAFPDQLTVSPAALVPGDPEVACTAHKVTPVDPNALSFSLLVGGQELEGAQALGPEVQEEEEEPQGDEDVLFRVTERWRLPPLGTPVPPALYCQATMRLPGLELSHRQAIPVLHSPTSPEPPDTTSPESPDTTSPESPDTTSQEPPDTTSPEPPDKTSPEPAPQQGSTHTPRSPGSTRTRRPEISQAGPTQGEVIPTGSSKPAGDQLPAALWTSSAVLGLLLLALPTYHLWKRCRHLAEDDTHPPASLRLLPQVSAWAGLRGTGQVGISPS

T2: recombinant mouse MAdCAM (mouse, UniProt Q61826 22-365)
T2 sequence (looked up): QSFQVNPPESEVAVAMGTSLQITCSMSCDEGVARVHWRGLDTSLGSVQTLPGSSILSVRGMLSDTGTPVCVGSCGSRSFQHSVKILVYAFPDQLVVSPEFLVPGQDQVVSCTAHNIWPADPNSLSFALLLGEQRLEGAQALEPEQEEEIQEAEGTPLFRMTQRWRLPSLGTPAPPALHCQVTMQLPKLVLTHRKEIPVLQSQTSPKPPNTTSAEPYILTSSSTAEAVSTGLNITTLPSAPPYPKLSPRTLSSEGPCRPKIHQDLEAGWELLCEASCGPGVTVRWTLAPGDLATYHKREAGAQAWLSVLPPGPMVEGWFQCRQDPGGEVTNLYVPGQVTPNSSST

T3: chimeric cynomolgus/human MAdCAM (cynomolgus; human, UniProt Q13477 226-382, limits assumed)
T3 sequence: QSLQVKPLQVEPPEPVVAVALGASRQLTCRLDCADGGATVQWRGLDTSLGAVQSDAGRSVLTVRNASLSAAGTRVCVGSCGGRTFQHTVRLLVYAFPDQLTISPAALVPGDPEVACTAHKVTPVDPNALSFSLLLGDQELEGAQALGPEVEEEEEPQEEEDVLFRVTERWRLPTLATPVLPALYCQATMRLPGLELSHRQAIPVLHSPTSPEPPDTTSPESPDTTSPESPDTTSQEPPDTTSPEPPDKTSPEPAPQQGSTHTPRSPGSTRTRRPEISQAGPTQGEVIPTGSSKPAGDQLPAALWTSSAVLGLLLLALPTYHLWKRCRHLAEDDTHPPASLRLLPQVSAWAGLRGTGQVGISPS

B1: anti-MAdCAM monoclonal antibody 6.34.2 (antibody, human IgG4, kappa, V domains shown)
VH: QVQLVESGGGVVQPGRSLRLSCAASGFTFSSYGMHWVRQAPGKGLEWVAVISNDGNNKYYADSVKGRFTISRDNSKNTLYLQMNSLSAEDTAVYYCARDSTAITYYYYGMDVWGQGTTVTVSS
VL: DIQMTQSPSSLSASVGDRVTITCRASQNISSYLNWFQQKPGKAPKLLIYAASGLKRGVPSRFSGSGSGTDFTLTIRTLQPDDFATYSCHQSYSLPFTFGPGTKVDIKR
notes: human IgG4 kappa from hybridoma 6.34.2
B2: anti-MAdCAM monoclonal antibody 6.22.2 (antibody, human IgG4, kappa, V domains shown)
VH: QVQLVESGGGVVQPGRSLRLSCAASGHTFSSDGMHWVRQAPGKGLEWVAIIWYDGSNKYYADSVKGRFTISRDNSKNTLYLQMNSLRAEDTAVYYCARDPGYYYGMDVWGQGTTVTVSS
VL: EIVLTQSPDFQSVTPKEKVTITCRASQRIGSSLHWYQQKPDQSPKLLIKYASQSFSGVPSRFSGSGSGTNFTLTINGLEAEDAATYYCHQSGRLPLTFGGGTKVEIKR
notes: human IgG4 kappa from hybridoma 6.22.2
B3: anti-MAdCAM monoclonal antibody 7.26.4 (antibody, human IgG2, kappa, V domains shown)
VH: QVQLVQSGAEVKKPGASVKVSCEASGYTFTSYGIDWVRQAPGQGLEWMGWISVYSGNTNYAQKLQGRVTMSTDTSTSTAYMELRSLRSDDTAVYYCAREGSSSSGDYYYGMDVWGQGTTVTVSS
VL: DIVMTQTPLSLSVTPGQPASISCKSNQSLLYSDGKTYLFWYLQKPGQPPQLLIYEVSNRFSGVPDRFSGSGSGTDFTLKISRVEAEDVGVYYCMQSIQLPWTFGQGTKVEIKR
notes: human IgG2 kappa from hybridoma 7.26.4
B4: anti-MAdCAM monoclonal antibody 7.20.5 (antibody, human IgG2, kappa, V domains shown)
VH: QVQLQESGPGLVKPSETLSLTCTVSGSSISSYHWNWIRQPAGKGLEWIGRIYTSGSTNYNPSLKSRVTMSLDTSKNQFSLKLSSVTAADTAVYYCAREGVRYYYASGSYYYGLDVWGQGTTVTVSS
VL: not shown
notes: human IgG2 kappa from hybridoma 7.20.5
B5: anti-MAdCAM monoclonal antibody 6.67.1 (antibody, human IgG4, kappa, V domains shown)
VH: QVQLQESGPGLVKPSETLSLTCTVSGDSISSNYWSWIRQPAGKGLEWIGRIYTSGGTNSNPSLRGRVTILADTSKNQFSLKLSSVTAADTAVYYCARDRITIIRGLIPSFFDYWGQGTLVTVSS
VL: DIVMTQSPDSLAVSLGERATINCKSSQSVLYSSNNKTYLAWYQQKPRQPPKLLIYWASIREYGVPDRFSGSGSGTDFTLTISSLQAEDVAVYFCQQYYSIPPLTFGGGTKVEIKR
notes: human IgG4 kappa from hybridoma 6.67.1

Columns and labels:
[1] = target: MAdCAM-IgG1 Fc fusion protein (human); experiment: cell-based or functional assay
[2] = target: T1, human MAdCAM (full length); experiment: cell-based or functional assay
[3] = target: T4, MAdCAM-IgG1 Fc fusion protein (human); experiment: SPR BIAcore protocol 2: mAb amine-coupled, MAdCAM-IgG1 Fc injected
T4 construct: Made in CHO-DHFR cells; also called MAdCAM-IgFc
Experimental: Affinity-purified mAb were immobilized onto the dextran layer of a CMS biosensor chip using amine coupling. […] Samples of MAdCAM-IgG₁ Fc fusion protein in running buffer were prepared at concentrations ranging from 0.2-55 nM (a 0 nM solution comprising running buffer alone was included as a zero reference). Samples were randomized and injected in duplicate for 3 mM each across 4 flow cells using HBS-EP (10 mM HEPES pH 7.4, 150 mM NaCl, 3 mM EDTA, 0.005% Surfactant P20) as running buffer. A flow rate of 100 μL/min was used to minimize mass transport limitations. Dissociation of MAdCAM-IgG₁ Fc fusion protein was monitored for 180 mins, the surface regenerated by a 6 sec injection of 25 mM H₃PO₄ (50 μL/min), or 10 mM (6.22.2), 20 mM (6.67.1, 6.73.2, 6.77.1) to 25 mM (6.34.2) and 45 mM NaOH (6.14.2) and the data analysed using the BIAevaluation (v3.1) software package.

recombinant mouse MAdCAM = target: T2, recombinant mouse MAdCAM; experiment: ELISA
[4] = target: T3, chimeric cynomolgus/human MAdCAM; experiment: cell-based or functional assay
[5] = target: T4, MAdCAM-IgG1 Fc fusion protein; experiment: SPR BIAcore protocol 1: mAb captured, MAdCAM-IgG1 Fc injected
Experimental: To perform kinetic analyses, a high density mouse anti-human (IgG₂ and IgG₄) antibody surface over a CMS BIAcore sensor chip was prepared using routine amine coupling. Hybridoma supernatants were diluted 10, 5, 2-fold in HBS-P (10 mM HEPES pH 7.4, 150 mM NaCl, 0.005% Surfactant P20) running buffer containing 100 μg/mL BSA and 10 mg/mL carboxymethyldextran or used neat. Each mAb was captured onto a separate surface using a […] contact time and a 5 mM wash for stabilization of the mAb baseline. MAdCAM-IgG₁ Fc (141 nM) fusion protein was then injected at over all surfaces for one minute, followed by a 3 mM dissociation. The data were normalized for the amount of antibody captured on each surface and evaluated with global fit Langmuir 1:1, using baseline drift models available on the BIAevaluation software provided by BIAcore.

[6] = target: T4, MAdCAM-IgG1 Fc fusion protein; experiment: cell-based or functional assay; remark: listed apart in the source

Binder | Mean IC50, JY cell adhesion to MAdCAM IgG1 Fc fusion [1] [µg/mL] | Mean IC50, JY cell adhesion, MAdCAM FlpIn CHO Assay [2] [µg/mL] | Kd [3] [nM] | koff [3] [s⁻¹] | kon [3] [M⁻¹ s⁻¹] | binding result (recombinant mouse MAdCAM) | Functional IC50, cynomolgus/human MAdCAM-CHO/JY adhesion assay [4] [µg/mL] | Kd [5] [nM] | koff [5] [s⁻¹] | kon [5] [M⁻¹ s⁻¹] | MAdCAM IgG1 Fc fusion Assay Mean IC50 (Parent) [6] [µg/mL]
B1 | 0.013 | 0.285 | < 0.015 | < 5e-06 | 330000 | no binding | 0.47 | 0.0158 | 1.9e-05 | 1.2e+06 | 0.013
B2 | 0.018 | 0.573 | 0.0038 | 8.7e-07 | 230000 | no binding | 0.83 | 0.0093 | 1.4e-05 | 1.5e+06 | 0.018
B3 | 0.021 | 0.574 | 0.08 | 1.2e-05 | 150000 | no binding | 0.96 | 0.271 | 0.00026 | 960000 | 0.021
B4 | 0.025 | 0.387 | 0.075 | 1.2e-05 | 160000 | no binding | 0.62 | 0.0422 | 1.9e-05 | 450000 | –
B5 | 0.013 | 0.298 | < 0.02 | < 5e-06 | 240000 | no binding | 0.75 | ≤ 0.017 | ≤ 1e-05 | 590000 | 0.013
